In patent publication US10865391B2, “Glutamate dehydrogenase mutants and their application in preparation of L-phosphinothricin” (ZHEJIANG UNIVERSITY, priority 2018, dated 2020):

Experiment: Standard enzyme activity measurement toward PPO, crude enzyme (per volume fermentation broth)
Type: biochemical
Conditions: toward PPO; for Fold change: enzyme activity of mutant versus wild type
Experimental: The preserved recombinant E. coli is streaked onto the plate for activation. Single colonies are picked and inoculated into 5 mL LB liquid medium containing 50 μg/mL kanamycin and cultured at 37° C. for 12 h. The culture is transferred to 50 mL fresh LB liquid medium containing 50 μg/mL kanamycin at a 2% inoculum, and then incubated at 37° C. until the OD600 reaches 0.6; after that, add IPTG to a final concentration of 0.5 mM, and then proceed with induction culture under the temperature of 18° C. for 16 h.
After the cultivation, the culture is centrifuged at 10000 rpm for 10 min; discard supernatant, and collect cells. The harvested cells are washed for 2 times using pH 7.5 50 mM phosphate buffer. After that, the cells are re-suspend into the pH 7.5 phosphate buffer and disrupted ultrasonically (400W for 30 times, Ultrasonic time is 3 s, and the interval is 7 s). The cell disrupted solution is centrifuged at 12000 g for 5 min at 4° C. to remove the precipitate, and the supernatant obtained is the crude enzyme containing recombinant glutamate dehydrogenase
The standard enzyme activity measurement system: Appropriate amount of enzyme, 100 mM substrate, 10 mM coenzyme (NADH or NADPH), 500 mM NH4^+ ((NH4)2SO4); total system volume is up to 400 μL; reaction medium is pH 7.5 phosphate buffer. 35° C. reaction for 10 min; after that, add 40 uL 5 M NaOH to terminate reaction.
Definition of enzyme activity unit: The quantity of enzyme as required by generation of 1 μmol L-phosphinothricin per minute under standard reaction conditions.
Proceed with induction culture of constructed mutants, and prepare crude enzyme solution.

[1] = crude enzyme, standard system, N.D. = no detectable activity

B1: CgGluDH: wild type glutamate dehydrogenase from Corynebacterium glutamicum, NP_601279.1, NADPH-specific (protein, UniProt P31026 1-447, looked up)
NADP-specific glutamate …: MTVDEQVSNYYDMLLKRNAGEPEFHQAVAEVLESLKIVLEKDPHYADYGLIQRLCEPERQLIFRVPWVDDQGQVHVNRGFRVQFNSALGPYKGGLRFHPSVNLGIVKFLGFEQIFKNSLTGLPIGGGKGGSDFDPKGKSDLEIMRFCQSFMTELHRHIGEYRDVPAGDIGVGGREIGYLFGHYRRMANQHESGVLTGKGLTWGGSLVRTEATGYGCVYFVSEMIKAKGESISGQKIIVSGSGNVATYAIEKAQELGATVIGFSDSSGWVHTPNGVDVAKLREIKEVRRARVSVYADEVEGATYHTDGSIWDLKCDIALPCATQNELNGENAKTLADNGCRFVAEGANMPSTPEAVEVFRERDIRFGPGKAANAGGVATSALEMQQNASRDSWSFEYTDERLQVIMKNIFKTCAETAAEYGHENDYVVGANIAGFKKVADAMLAQGVI
With B1 the “Enzyme activity of wild type (U/mL)” value [1] was 0.011 U/mL.

B2: CgGluDH-A166G: CgGluDH mutant A166G, SEQ ID NO. 3 (protein)
chain: MTVDEQVSNYYDMLLKRNAGEPEFHQAVAEVLESLKIVLEKDPHYADYGLIQRLCEPERQLIFRVPWVDDQGQVHVNRGFRVQFNSALGPYKGGLRFHPSVNLGIVKFLGFEQIFKNSLTGLPIGGGKGGSDFDPKGKSDLEIMRFCQSFMTELHRHIGEYRDVPGGDIGVGGREIGYLFGHYRRMANQHESGVLTGKGLTWGGSLVRTEATGYGCVYFVSEMIKAKGESISGQKIIVSGSGNVATYAIEKAQELGATVIGFSDSSGWVHTPNGVDVAKLREIKEVRRARVSVYADEVEGATYHTDGSIWDLKCDIALPCATQNELNGENAKTLADNGCRFVAEGANMPSTPEAVEVFRERDIRFGPGKAANAGGVATSALEMQQNASRDSWSFEYTDERLQVIMKNIFKTCAETAAEYGHENDYVVGANIAGFKKVADAMLAQGVI
modifications: Corynebacterium glutamicum glutamate dehydrogenase mutant
For B2, the Fold change was 31 and the “Enzyme activity of mutants (U/mL)” value [1] was 0.34 U/mL.

B3: CgGluDH-V376A: CgGluDH mutant V376A, SEQ ID NO. 4 (protein)
chain: MTVDEQVSNYYDMLLKRNAGEPEFHQAVAEVLESLKIVLEKDPHYADYGLIQRLCEPERQLIFRVPWVDDQGQVHVNRGFRVQFNSALGPYKGGLRFHPSVNLGIVKFLGFEQIFKNSLTGLPIGGGKGGSDFDPKGKSDLEIMRFCQSFMTELHRHIGEYRDVPAGDIGVGGREIGYLFGHYRRMANQHESGVLTGKGLTWGGSLVRTEATGYGCVYFVSEMIKAKGESISGQKIIVSGSGNVATYAIEKAQELGATVIGFSDSSGWVHTPNGVDVAKLREIKEVRRARVSVYADEVEGATYHTDGSIWDLKCDIALPCATQNELNGENAKTLADNGCRFVAEGANMPSTPEAVEVFRERDIRFGPGKAANAGGAATSALEMQQNASRDSWSFEYTDERLQVIMKNIFKTCAETAAEYGHENDYVVGANIAGFKKVADAMLAQGVI
modifications: Corynebacterium glutamicum glutamate dehydrogenase mutant
In the case of B3, the Fold change is reported as 225 and the “Enzyme activity of mutants (U/mL)” value [1] is reported as 2.48 U/mL.

B4: GsGluDH-A153G: GsGluDH mutant A153G, SEQ ID NO. 9 (protein)
chain: MAADKHTEEKGQQDDVLASTQIVIHRALEKLGYPEEVYELLKEPIRVLTVRIPVRMDDGSVKIFTGYRAQHNDAVGPTKGGVRFHPDVTEREVKALSIWMSLKCGIVDLPYGGGKGGIVCDPRTMSFRELERLSRGYVRAISQIVGPTKDIPGPDVFTNSQIMAWMMDEYSRIREFDSPGFITGKPLVLGGSHGRETATAKGVTICIREAAKKRGLSLEGARVVVQGFGNAGSYLAKFLHDAGAKVVGISDVYGALYDPNGLDIDYLLERRDSFGTVTKLFKNTISNKELLELDCDILVPAAIENQITAENAPRIKASIVVEAANGPTTLEATEILTQRGILLVPDVLASAGGVTVSYFEWVQNNQGYYWTEEEVEQRLEKVMVKAFNNVYEMAQTRRVDMRLAAYMVGVRKMAEACRFRGWV
modifications: Geobacillus stearothermophilus glutamate dehydrogenase mutant
For B4, the “Enzyme activity of mutants (U/mL)” value [1] was 0.04 U/mL.

B5: PeGluDH-V375A: PeGluDH mutant V375A, SEQ ID NO. 6 (protein)
chain: MIESVDHFLARLQQRDPAQPEFHQAVEEVLRSLWPFLEQNPHYLEAGILERMVEPERAVLFRVSWVDDQGKVQVNRGYRIQMSSAIGPYKGGLRFHPSVNLGVLKFLAFEQVFKNSLTSLPMGGGKGGSDFDPKGKSDAEVMRFCQAFMSELYRHIGADLDVPAGDIGVGAREIGFLFGQYKRLANQFTSVLTGKGMTYGGSLIRPEATGYGCVYFAEEMLKRQEQRIDGRRVAISGSGNVAQYAARKVMDLGGKVISLSDSEGTLFCEAGLTDEQWDALMELKNVKRGRISELAGRFGLEFRKGQTPWSLACDIALPCATQNELNADDARTLLRNGCICVAEGANMPTTLDAVDIFIEAGILYAPGKASNAGGAAVSGLEMSQNAMRLLWTAGEVDSKLHHIMQSIHHVCVHYGEEADGRINYVKGANIAGFVKVADAMLAQGVV
modifications: Pseudomonas entomophila glutamate dehydrogenase mutant
With B5 the Fold change was 107 and the “Enzyme activity of mutants (U/mL)” value [1] was 11.06 U/mL.

B6: BmGluDH-A156G: BmGluDH mutant A156G, SEQ ID NO. 13 (protein)
chain: MVADKMQDSKNSQEEKHDVLKSTQTVIHKALEKLGYPDEVYELLKEPLRMMTVKIPVRMDDGSVKIFTGHRAQHNDAVGPTKGGIRFHPNVTEKEVKALSIWMSLKCGIVDLPYGGGKGGIVCDPRNMSFGELERLSRGYVRAISQIVGPTKDIPGPDVFTNSQIMAWMMDEYSRIDEFNSPGFITGKPLVLGGSHGRETATAKGVTICIREAAKKRGIELQGARVVVQGFGNAGSFLAKFMHDAGAKIVGISDAYGALHDPNGLDIDYLLDRRDSFGTVTKLFNNTISNKELLELDCDILVPAAIENQITEENAHNIQASIVVEAANGPTTLEATRILSERGILLVPDVLASAGGVTVSYFEWVQNNQGYYWTEEEVEEKLEKVMVKSFNNIYETSTTRKVDMRLAAYMIGVRKMAEGSRFRGWI
modifications: Bacillus megaterium glutamate dehydrogenase mutant
With B6 the “Enzyme activity of mutants (U/mL)” value [1] was 0.34 U/mL.

B7: LsGluDH-A144G: LsGluDH mutant A144G, SEQ ID NO. 15 (protein)
chain: MSENLNLFTSTQDVIQDALNKLGYDEAMYELLKEPLRMLQVRIPVKMDDGTTKVFTGYRAQHNDAVGPTKGGVRFHPQVSEEEVKALSMWMTLKCGIVDLPYGGGKGGVICDPRQMSMGEIERLSRGYVRAVSQIVGPTKDIPGPDVFTNAQIMAWMMDEYSRMDEFNSPGFITGKPLVLGGSQGRDRATAQGVTIVIEEAAKKRGIDIKGARVVIQGFGNAGSFLAKFMHDLGAKVIGISDAYGALHDPEGLDIDYLLDRRDSFGTVTTLFENTISNKELLELDCDILVPAAIENQITADNAHNIKADIVVEAANGPTTAEATKILTERGILLVPDVLASAGGVTVSYFEWVQNNQGYYWTEEEVEERLYKKMVEAFDNVYTTATTRNINMRLAAYMVGVRRTAEASRFRGWV
modifications: Lysinibacillus sphaericus glutamate dehydrogenase mutant
With B7 the “Enzyme activity of mutants (U/mL)” value [1] was 1.69 U/mL.

B8: BsGluDH-A154G: BsGluDH mutant A154G, SEQ ID NO. 11 (protein)
chain: MSAKQVSKDEEKEALNLFLSTQTIIKEALRKLGYPGDMYELMKEPQRMLTVRIPVKMDNGSVKVFTGYRSQHNDAVGPTKGGVRFHPEVNEEEVKALSIWMTLKCGIANLPYGGGKGGIICDPRTMSFGELERLSRGYVRAISQIVGPTKDIPGPDVYTNSQIMAWMMDEYSRLREFDSPGFITGKPLVLGGSQGRETATAQGVTICIEEAVKKKGIKLQNARIIIQGFGNAGSFLAKFMHDAGAKVIGISDANGGLYNPDGLDIPYLLDKRDSFGMVTNLFTDVITNEELLEKDCDILVPAAISNQITAKNAHNIQASIVVEAANGPTTIDATKILNERGVLLVPDILASAGGVTVSYFEWVQNNQGYYWSEEEVAEKLRSVMVSSFETIYQTAATHKVDMRLAAYMTGIRKSAEASRFRGWV
modifications: Bacillus subtilis glutamate dehydrogenase mutant
In the case of B8, the “Enzyme activity of mutants (U/mL)” value [1] is reported as 0.50 U/mL.

B9: LsGluDHp-V386A: LsGluDHp mutant V386A, SEQ ID NO. 8 (protein)
chain: MTITTVSNEQLAKEYVDGVFEQLKQQNCHQAEFLQAAEEIFISLVPVFVQHPEYIKANILSRIVEPDRIISFRVAWQDDHNQVQVNRGYRVQYSNVMGPYKGGLRFHPSVNESIIKFLGFEQIFKNALTGQPIGGGKGGSNFDPKGKSDSEIMRFCQAFMTELYRHIGPDVDVPAGDIGVGAREVGYLWGQYKRLTKASESGVLTGKTPGYGGSLARKEATGYGTVYFVNEMLKDVNDSFEGKTVVVSGSGNVSTYAIEKAQQYGAKVVACSDSSGYIYDPEGLDLDVIKEIKEVKGDRISTYVSYRPNATFTNGCTGIWTIPCDIALPCATQNEINGESARTLISNGVKAIGEGANMPSDLEAINEFLNAGVLFGPAKAANAGGAAVSALEMAQDSSRVFWSFEEVDAKLHQIMKDIYSDSKAAAEKYGFPGNLVMGANIAGFIKVADGMLTEGIY
modifications: Lysinibacillus sphaericus glutamate dehydrogenase mutant
In the case of B9, the Fold change is reported as 588 and the “Enzyme activity of mutants (U/mL)” value [1] is reported as 12.34 U/mL.
